B1: MTSP-1 Q38H/I41S/D60bT/F60eS/ins97aV/F97D/T98P/F99L/C122S/G151H/Q175L/Q192E (enzyme)
chain: VVGGTDADEGEWPWQVSLHALGHGHSCGASLISPNWLVSAAHCYIDTRGSRYSDPTQWTAFLGLHDQSQRSAPGVQERRLKRIISHPFFNDDVPLDYDIALLELEKPAEYSSMVRPISLPDASHVFPAGKAIWVTGWGHTQYGGTHALILQKGEIRVINQTTCENLLPQLITPRMMCVGFLSGGVDSCEGDSGGPLSSVEADGRIFQAGVVSWGDGCAQRNKPGVYTRLPLFRDWIKENTGV
B2: MTSP-1 Q38H/I41A/D60bV/F60eR/Y60gW/ins97aE/F97T/T98G/F99L/C122S/G151N/Q175L/Q192D (enzyme)
chain: B1 chain with S26A, T47V, S50R, Y52W, D92T, V93E, P94G, H146N, E189D
B3: MTSP-1 Q38S/I41S/F60eR/F97T/ins97aE/T98G/F99L/C122S/G151N/Q175L/Q192S (enzyme)
chain: B1 chain with H23S, T47D, S50R, D92T, V93E, P94G, H146N, E189S
B4: MTSP-1 Q38H/I41S/D60bF/F60eV/F97D/ins97aV/T98P/F99L/C122S/G151N/Q175L/Q192A (enzyme)
chain: B1 chain with T47F, S50V, H146N, E189A
B5: MTSP-1 Q38T/I41S/D60bG/F60eM/ins97aV/F97D/T98P/F99L/C122S/G151N/Q175S/Q192S (enzyme)
chain: B1 chain with H23T, T47G, S50M, H146N, L170S, E189S
B6: MTSP-1 Q38R/I41T/ins97aE/F97T/T98G/F99L/C122S/G151N/Q175L/Q192G (enzyme)
chain: B1 chain with H23R, S26T, T47D, S50F, D92T, V93E, P94G, H146N, E189G
B7: MTSP-1 Q38D/I41S/D60bT/F60eR/ins97aV/F97D/T98P/F99L/C122S/G151K/Q175S/Q192V (enzyme)
chain: B1 chain with H23D, S50R, H146K, L170S, E189V
B8: MTSP-1 Q38H/I41A/D60bT/F60eK/Y60gW/ins97aE/F97T/T98G/F99L/C122S/Q175L/Q192D (enzyme)
chain: B1 chain with S26A, S50K, Y52W, D92T, V93E, P94G, H146G, E189D
B9: MTSP-1 Q38T/I41S/D60bV/F60eR/ins97aV/F97D/T98P/F99L/C122S/G151N/Q175R/Q192V (enzyme)
chain: B1 chain with H23T, T47V, S50R, H146N, L170R, E189V
B10: MTSP-1 Q38H/I41T/D60bV/F60eQ/F97T/ins97aE/T98G/F99L/C122S/Q175L/Q192G (enzyme)
chain: B1 chain with S26T, T47V, S50Q, D92T, V93E, P94G, H146G, E189G
B11: MTSP-1 Q38Y/I41A/D60bL/F60eQ/ins97aV/F97D/T98P/F99L/C122S/G151N/Q175M/Q192A (enzyme)
chain: B1 chain with H23Y, S26A, T47L, S50Q, H146N, L170M, E189A
B12: MTSP-1 Q38H/I41A/D60bA/F60eR/ins97aE/F97T/T98G/F99L/C122S/G151N/Q175L/Q192E (enzyme)
chain: B1 chain with S26A, T47A, S50R, D92T, V93E, P94G, H146N
B13: MTSP-1 Q38H/I41A/F97T/ins97aE/T98G/F99L/C122S/Q175L/Q192G (enzyme)
chain: B1 chain with S26A, T47D, S50F, D92T, V93E, P94G, H146G, E189G
B14: MTSP-1 Q38R/I41S/D60bH/F60eI/ins97aE/F97T/T98G/F99L/C122S/G151N/Q175L/Q192E (enzyme)
chain: B1 chain with H23R, T47H, S50I, D92T, V93E, P94G, H146N
B15: MTSP-1 I41T/D60bW/F60eH/F97D/ins97aV/T98P/F99L/C122S/G151N/Q175L/Q192G (enzyme)
chain: B1 chain with H23Q, S26T, T47W, S50H, H146N, E189G
B16: MTSP-1 Q38H/I41A/D60bV/F60eI/ins97aE/F97T/T98G/F99L/C122S/Q175L/Q192E (enzyme)
chain: B1 chain with S26A, T47V, S50I, D92T, V93E, P94G, H146G
B17: MTSP-1 Q38H/I41A/D60bT/F60eH/Y60gW/ins97aE/F97T/T98G/F99L/C122S/Q175L/Q192D (enzyme)
chain: B1 chain with S26A, S50H, Y52W, D92T, V93E, P94G, H146G, E189D
B18: MTSP-1 ins97aV/F97D/T98P/F99L/C122S/G151N/Q175L/Q192G (enzyme)
chain: B1 chain with H23Q, S26I, T47D, S50F, H146N, E189G
B19: MTSP-1 Q38E/I41S/D60bH/F60eI/ins97aE/F97T/T98G/F99L/C122S/G151N/Q175L/Q192V (enzyme)
chain: B1 chain with H23E, T47H, S50I, D92T, V93E, P94G, H146N, E189V
B20: MTSP-1 Q38W/I41S/D60bG/F60eI/F97D/ins97aV/T98P/F99L/C122S/G151N/Q175A/Q192D (enzyme)
chain: B1 chain with H23W, T47G, S50I, H146N, L170A, E189D
B21: MTSP-1 Q38H/I41A/D60bA/F60eR/F97T/ins97aE/T98G/F99L/C122S/Q175L/Q192E (enzyme)
chain: B1 chain with S26A, T47A, S50R, D92T, V93E, P94G, H146G
B22: MTSP-1 Q38G/H40R/I41H/D60bN/F60eT/F97D/F99L/C122S/Q175L/Q192G (enzyme)
chain: VVGGTDADEGEWPWQVSLHALGGGRHCGASLISPNWLVSAAHCYIDNRGTRYSDPTQWTAFLGLHDQSQRSAPGVQERRLKRIISHPFFNDDTLDYDIALLELEKPAEYSSMVRPISLPDASHVFPAGKAIWVTGWGHTQYGGTGALILQKGEIRVINQTTCENLLPQLITPRMMCVGFLSGGVDSCGGDSGGPLSSVEADGRIFQAGVVSWGDGCAQRNKPGVYTRLPLFRDWIKENTGV
B23: MTSP-1 Q38E/H40R/I41H/D60bK/F60eT/F97D/F99L/C122S/Q175L/Q192G (enzyme)
chain: B22 chain with G23E, N47K
B24: MTSP-1 Q38G/H40R/I41H/D60bK/F60eT/F97D/F99L/C122S/Q175L/Q192G (enzyme)
chain: B22 chain with N47K

Substitutions are numbered along the chain they refer to. In names and notes the source's numbering stands.

plasma purified human complement protein C3 (human), sequence (P01024 23-667, chain 1 of 2): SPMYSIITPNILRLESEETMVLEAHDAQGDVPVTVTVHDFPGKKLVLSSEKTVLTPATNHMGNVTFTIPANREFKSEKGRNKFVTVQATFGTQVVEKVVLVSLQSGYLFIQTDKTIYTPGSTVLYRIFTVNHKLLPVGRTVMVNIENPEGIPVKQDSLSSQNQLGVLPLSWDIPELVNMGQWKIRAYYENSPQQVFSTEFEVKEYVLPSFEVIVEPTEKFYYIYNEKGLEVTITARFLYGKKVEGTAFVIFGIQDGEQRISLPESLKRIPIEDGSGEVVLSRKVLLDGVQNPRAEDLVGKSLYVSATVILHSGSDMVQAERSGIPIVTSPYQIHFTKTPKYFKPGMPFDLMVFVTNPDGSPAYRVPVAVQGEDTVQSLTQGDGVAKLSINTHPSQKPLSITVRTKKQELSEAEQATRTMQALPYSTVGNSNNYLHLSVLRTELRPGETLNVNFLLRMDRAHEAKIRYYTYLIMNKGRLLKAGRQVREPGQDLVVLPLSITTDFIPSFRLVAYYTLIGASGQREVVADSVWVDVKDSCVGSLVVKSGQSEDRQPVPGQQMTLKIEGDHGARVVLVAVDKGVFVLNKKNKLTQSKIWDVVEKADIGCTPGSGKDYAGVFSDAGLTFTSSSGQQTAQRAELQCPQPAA
plasma purified human complement protein C3 (human), sequence (P01024 672-1663, chain 2 of 2): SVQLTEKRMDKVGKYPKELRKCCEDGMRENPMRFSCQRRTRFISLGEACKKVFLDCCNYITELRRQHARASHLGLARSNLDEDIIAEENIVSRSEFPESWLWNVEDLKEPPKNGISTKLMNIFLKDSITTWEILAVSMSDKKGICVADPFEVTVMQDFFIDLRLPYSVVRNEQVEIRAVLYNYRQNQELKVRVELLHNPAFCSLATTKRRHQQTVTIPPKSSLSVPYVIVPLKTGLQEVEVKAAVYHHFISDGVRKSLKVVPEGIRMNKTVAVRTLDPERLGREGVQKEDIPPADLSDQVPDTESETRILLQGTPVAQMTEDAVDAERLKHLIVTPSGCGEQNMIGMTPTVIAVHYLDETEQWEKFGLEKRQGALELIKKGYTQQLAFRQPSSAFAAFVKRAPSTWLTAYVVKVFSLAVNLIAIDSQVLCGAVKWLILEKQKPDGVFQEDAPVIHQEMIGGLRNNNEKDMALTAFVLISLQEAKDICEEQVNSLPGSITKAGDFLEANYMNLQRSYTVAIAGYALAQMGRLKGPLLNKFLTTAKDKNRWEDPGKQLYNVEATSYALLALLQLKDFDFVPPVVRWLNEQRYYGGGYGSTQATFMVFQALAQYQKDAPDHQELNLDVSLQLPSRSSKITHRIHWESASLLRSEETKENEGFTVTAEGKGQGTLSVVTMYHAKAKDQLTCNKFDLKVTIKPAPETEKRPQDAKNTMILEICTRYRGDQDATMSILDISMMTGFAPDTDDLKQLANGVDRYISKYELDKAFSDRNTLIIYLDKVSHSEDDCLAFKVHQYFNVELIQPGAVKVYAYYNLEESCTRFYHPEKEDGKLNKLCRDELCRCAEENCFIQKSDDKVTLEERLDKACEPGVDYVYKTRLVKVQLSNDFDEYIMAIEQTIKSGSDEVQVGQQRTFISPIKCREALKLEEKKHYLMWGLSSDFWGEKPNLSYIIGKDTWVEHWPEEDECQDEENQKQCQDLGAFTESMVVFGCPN

The experiment addresses plasma purified human complement protein C3 (human) (UniProt P01024). Kind of experiment: cell-based or functional assay.
B1 gave an EC50 of hC3 cleavage of 29.8 nM. With B2, the EC50 of hC3 cleavage worked out at 7.74 nM.

B3: the EC50 of hC3 cleavage amounted to 6.26 nM.

With B4, the EC50 of hC3 cleavage is 1.57 nM. With B5, the EC50 of hC3 cleavage stood at 28.8 nM.

B6 showed an EC50 of hC3 cleavage of 30.6 nM.

B7 came in with an EC50 of hC3 cleavage of 48.1 nM. The figure for B8 is 3.82 nM; for B9 it is 15.7 nM; for B10 it is 4.93 nM. In the case of B11, the EC50 of hC3 cleavage came out at 1.53 nM. For the molecule B12, the EC50 of hC3 cleavage was found to be 14.2 nM. As to B13, the EC50 of hC3 cleavage was 3.9 nM. The figure for B14 is 32.9 nM; for B15 it is 3.1 nM; for B16 it is 7.64 nM. For the molecule B17, the EC50 of hC3 cleavage was found to be 2.28 nM. In turn, B18 came in with an EC50 of hC3 cleavage of 38.5 nM. To B19 belongs 11.5 nM; to B20, 43.1 nM. Regarding B21, the EC50 of hC3 cleavage is 12 nM.

For the molecule B22, the EC50 of hC3 cleavage came to 11.9 nM. Regarding B23, the EC50 of hC3 cleavage came to 16.6 nM. B24 yielded an EC50 of hC3 cleavage of 21.3 nM.

The record behind these values is patent US20240018502A1.
